Data: the RNAGym collection of RNA variant scans (doi:10.1021/acssynbio.7b00057)

B1: Pistol ribozyme (parent)
chain: GGGUCGUUGUUCCAUAAUCGCGUGGAUAUGGCACGCAAGUUUCUACCGGGCACCGUAAAUGUCCGACUGGAGCCGUUCGGGCGGCUAUAAACAGACCUCAGGCCCGAAGCGUGGCGGCACCUGCCGCCGGUGGUAAAAAAGAUCGGAAGAGCACACGUCU

Variants of: B1
Assay: aptazyme ON/OFF ratio, guanine; higher = stronger switching; co-transcriptional cleavage with and without guanine

Row | Variant | aptazyme ON/OFF ratio
1 | G9U U10G U11A C13U | 1.08
2 | U8C G9A U11A C12A C13U | 1.34
3 | U7C U8A G9U U10A U11G C13G | 1.03
4 | U8G U10C U11G C12G C13G | 1.18
5 | U7A G9A C12U C13U | 1.21
6 | U8A G9C U10G U11G | 1.07
7 | U7C U8A G9A U11C C12G C13G | 1.12
8 | U7C U8G G9A U10A U11C C12U | 1.05
9 | U8A G9C U10C C12G | 1.05
10 | U7A G9A U10C C12U C13A | 1.08
11 | U7G U8C G9A U10C U11C C13A | 1.02
12 | U7G U8C G9C U10A U11A C12A C13U | 1.11
13 | U7A G9A U10G U11G C13U | 1.09
14 | U7A U8C U10A U11G C12G C13A | 1.36
15 | U7A U8A G9C U10G U11G C13G | 1.18
16 | U7G U8C G9U U10C C12G C13G | 1.22
17 | U7G U8C G9U U10A U11C C12G C13G | 1.05
18 | U7G U8A G9A U10G U11C C12G | 1.17
19 | U7A U8C G9U U10C U11A C13A | 1.1
20 | U7A U8C G9A U10A U11A C13A | 1.35
21 | U8A U10G U11C C12U C13G | 1.27
22 | U7A U8A G9A U11A C12A C13A | 1.17
23 | U8A G9C C12G C13A | 1.2
24 | U7G U8C G9U U10A C12U C13U | 1.16

Row | Variant | aptazyme ON/OFF ratio
25 | U7A U8C U10C U11A C12A C13G | 1.15
26 | U8G U11A C12U C13A | 1.18
27 | U8C G9C U11A C12A C13G | 1.12
28 | U7G U8C G9C U10C C13A | 1.06
29 | U8G G9U U10C C12G C13G | 1.25
30 | U7A U8C G9C U10G U11C C12U C13U | 1.11
31 | U8C G9U U10A U11C C12A C13A | 1.33
32 | U8G U11A C13A | 1.24
33 | U7A G9U U10G U11C | 1.06
34 | U7C U8G G9C U10C U11C C12U C13A | 1.04
35 | U7C G9C U11C C12U C13G | 1.03
36 | U7G U8G U11A C12G C13G | 1.15
37 | U7A U8C G9A U10G U11G C12A | 1.11
38 | U7C U8G G9U U10G U11G C12A C13A | 1.1
39 | U7C U8A G9U U10G U11A C13G | 1.07
40 | U7G U8A G9A U11G C13A | 1.13
41 | U7A G9U U11G C12U C13G | 1.3
42 | U7G U8G U10A U11A C12U C13G | 1.22
43 | U7C U8G U10C U11A C12U C13U | 1.24
44 | U7A U8C G9A U10A U11G C12A C13A | 1.08
45 | U8G G9A U10C U11A C12U C13G | 1.05
46 | U7G U8G G9A U11C C12U C13U | 1.02
47 | U7G G9U C13G | 1.2
48 | U7G U8A U10C U11G C13A | 1.34

Row | Variant | aptazyme ON/OFF ratio
49 | U7A U8C G9U U10G U11A C12U C13U | 1.2
50 | U7G U8C G9U C12A C13A | 1.34
51 | U7G U10A U11A C13G | 1.11
52 | U8C U10C C12A | 1.34
53 | U7C G9C U10C U11G C12G C13U | 1.12
54 | U7A U8A G9U C12U C13A | 1.34
55 | U7A U8A U10G U11A | 1.03
56 | U8C U11A C12A | 1.34
57 | U7G U8A G9A U11C C12U C13A | 1.23
58 | U8A G9U U10C U11G C12G | 1.09
59 | U7G U8A G9C U11C C13G | 1.05
60 | U8G G9A U11C | 1.05
61 | U7A U8C G9U U10G U11A C12U C13A | 1.06
62 | U7G U8C G9C U10A C12A C13U | 1.05
63 | U7A U8G G9U U10C U11G C13G | 1.38
64 | U7C U8C U11A C12G | 1.14
65 | U7A U8A G9A U10G U11G C13G | 1.21
66 | U7C G9U U10A U11A C13A | 1.26
67 | U7C U8C U10C C12A C13A | 1.6
68 | U7A U8G G9A U10C C12A | 1.25
69 | U8G U10C U11G C12G C13U | 1.2
70 | U8A G9C U10C U11A C12G | 1.03
71 | U7A U10G U11G C12U C13U | 1.2
72 | U7A U8G G9U U10A C12A C13G | 1.28

Row | Variant | aptazyme ON/OFF ratio
73 | U8C G9A U10A U11C C12G C13U | 1.3
74 | U8C U10A U11A C12A | 1.17
75 | U8C U10G C12G | 1.07
76 | U7C U8G G9A U10C U11C C12U C13U | 1.02
77 | U8G G9A U11A C12A | 1.33
78 | U7G G9C C13G | 1.14
79 | U7G G9A U10A U11A C12A C13U | 1.11
80 | U7G U8G U11A C12U C13U | 1.15
81 | U7A U8C G9A U10A U11C C12U C13G | 1.15
82 | U7A U8C G9U C12G C13U | 1.37
83 | U7C U8C G9U U10A U11A C12A | 1.27
84 | U7G U8G G9A U10G U11G C12A C13U | 1.17
85 | U7A U8A G9A U10A U11A C12A C13G | 1.21
86 | U7C U8G G9A U10A U11A C12A C13U | 1.21
87 | U7G U8A U10G U11A | 2.15
88 | U7C U8A U11A C12A C13U | 1.26
89 | U7A U8A U11G C12A C13U | 1.46
90 | U8A G9A U10G U11A C12A | 1.17
91 | U7C U8C G9A U11G C13A | 1.3
92 | U7C U8C G9C U10C U11A C12A | 1.12
93 | U7C U8A G9U U10C C12A C13A | 1.13
94 | U7G G9A U10G U11C C13U | 1.08
95 | U7C G9C U10G U11G C13U | 1.09
96 | U7C U8C G9C U10C U11G C12U C13U | 1.1

Row | Variant | aptazyme ON/OFF ratio
97 | U7C G9A U10G C12A C13A | 1.15
98 | G9U U10A U11A C12U C13G | 1.7
99 | U7G U8G G9C U10C U11C | 1.22
100 | U7G U8G G9C U10G | 1.74
101 | U8A U10C U11G C12A C13G | 1.23
102 | U7C G9U U10A U11C C13U | 1.07
103 | U7G U8C U10C U11C | 1.14
104 | U7A U8C G9C U10C U11C C13U | 0.981
105 | U7C U8G G9A U10A U11G C12G | 1.25
106 | U7G U10A U11G | 1.71
107 | U7C U8G U10C U11A C12U | 3.58
108 | U7C U8C G9U U10G U11G C12U C13G | 1.09
109 | U7A U8A G9U C13U | 1.21
110 | G9U U10C U11A C12U C13A | 1.49
111 | U7A U8G G9C U10G U11C | 1.04
112 | U8A G9C U11A C12U | 1.22
113 | G9C U10G U11A C12G C13U | 1.07
114 | U7A U8C G9A U10A U11A C12G C13G | 1.13
115 | U7C U8G U10A U11A | 2.1
116 | U7G U8C G9A U10A U11G | 1.87
117 | U7A U8A G9A U10C U11C C12U C13G | 1.03
118 | U7A U8G U10C C13A | 1.45
119 | U7C U8A G9U U10A U11G C12A C13A | 1.09
120 | U7A U8G U10G C12G C13G | 1.3

Row | Variant | aptazyme ON/OFF ratio
121 | U7C U8A U11G C12A | 1.08
122 | U7A G9U U10A U11C | 1.02
123 | U7C U8C G9U U10C U11G C12G C13G | 1.09
124 | U7A U8C G9A U10G U11G C13U | 1.18
125 | U7G U8G G9U U10G U11C C12U C13U | 1.03
126 | U7A U8C G9A U11A C12A C13U | 1.17
127 | U7C G9U U10A U11A C13G | 1.04
128 | U8C U10G U11C C12U | 1.21
129 | U8G G9A U10C U11G C12G C13A | 1.34
130 | U7G U8C G9C U10C U11C C12G C13A | 1.09
131 | U7G U8G U10A U11G C13U | 1.33
132 | U7C G9U U10C U11G C12A C13G | 1.1
133 | U7A U8C G9U U10A U11A C12G C13U | 1.34
134 | U7G G9U U11A C12U C13G | 1.27
135 | U7C U8G U10A U11G C12G C13U | 1.36
136 | U7G U8A G9C U10C U11A C12U | 1.07
137 | U7C U10A U11G C12U | 1.19
138 | U8A G9U U10G U11G C12G | 1.27
139 | G9A U10G U11A C12U C13A | 1.21
140 | U7C U8A U11G | 1.18
141 | G9C U10G U11A C12U C13U | 1.08
142 | U7C U8A G9A U10G C12A C13A | 1.14
143 | U7C G9A U10G U11G C12G C13A | 1.07
144 | U7G U10G U11C C13A | 1.11

Row | Variant | aptazyme ON/OFF ratio
145 | U7C G9C U10C U11G C12U C13U | 1.09
146 | U7G U10A U11C C12G C13U | 1.11
147 | U7G U8C G9A U10A U11G C12G C13U | 1.09
148 | U7A U8C G9C U10C U11G C12A C13G | 1.07
149 | U7A G9U U10G U11A C12U C13A | 1.16
150 | U7A U8C G9C U11C C12A C13G | 1.04
151 | U7G U8A G9A U10C C12G C13U | 1.28
152 | U7G U8C G9C U10G U11A C12U C13G | 1.04
153 | U8A G9C U11G C12A C13G | 1.25
154 | U7C U8G U11C C12G | 1.3
155 | U8A G9A U10A C12U C13G | 1.24
156 | U7G U8G G9C U11G C12A | 1.73
157 | U8G G9C U11A C12G | 1.07
158 | U8A C12U | 1.62
159 | U7A U8G G9A U10G U11A C12A C13A | 1.19
160 | U8C U10C C13G | 1.26
161 | G9A U10G U11G C13U | 1.12
162 | U8C G9C U10C C12G C13A | 1.07
163 | U7G U8A G9C U10G U11G C12G C13U | 1.01
164 | U7G U8A G9U U10A C12A C13U | 1.06
165 | U10A U11G C13U | 1.37
166 | U7G U8C C12U C13A | 1.05
167 | U7G U8C U10A U11A C12A | 1.05
